Results from publication PMC9508125, “The evolutionary advantage of an aromatic clamp in plant family 3 glycoside exo-hydrolases” (Nature Communications, 2022).

Columns and labels:
[1] = substrate: O=[N+]([O-])c1ccc(O[C@@H]2O[C@H](CO)[C@@H](O)[C@H](O)[C@H]2O)cc1; assay: Steady-state apparent kinetic constants with substrates; type: biochemical, Hordeum vulgare; details: substance is the substrate, pH 5.25, 30.0 °C
[2] = substrate: OC[C@H]1O[C@@H](O[C@H]2[C@H](O)[C@@H](CO)OC(O)[C@@H]2O)[C@H](O)[C@@H](O)[C@@H]1O; assay: as above; type: biochemical, Hordeum vulgare; details: substance is the substrate, pH 5.25, 30.0 °C

B1: HvExoI W286F mutant (Hordeum vulgare subsp. vulgare; W311F) (protein)
chain: DYVLYKDATKPVEDRVADLLGRMTLAEKIGQMTQIERLVATPDVLRDNFIGSLLSGGGSVPRKGATAKEWQDMVDGFQKACMSTRLGIPMIYGIDAVHGQNNVYGATIFPHNVGLGATRDPYLVKRIGEATALEVRATGIQYAFAPCIAVCRDPRWGRCYESYSEDRRIVQSMTELIPGLQGDVPKDFTSGMPFVAGKNKVAACAKHFVGDGGTVDGINENNTIINREGLMNIHMPAYKNAMDKGVSTVMISYSSWNGVKMHANQDLVTGYLKDTLKFKGFVISDFEGIDRITTPAGSDYSYSVKASILAGLDMIMVPNNYQQFISILTGHVNGGVIPMSRIDDAVTRILRVKFTMGLFENPYADPAMAEQLGKQEHRDLAREAARKSLVLLKNGKTSTDAPLLPLPKKAPKILVAGSHADNLGYQCGGWTIEWQGDTGRTTVGTTILEAVKAAVDPSTVVVFAENPDAEFVKSGGFSYAIVAVGEHPYTETKGDNLNLTIPEPGLSTVQAVCGGVRCATVLISGRPVVVQPLLAASDALVAAWLPGSEGQGVTDALFGDFGFTGRLPRTWFKSVDQLPMNVGDAHYDPLFRLGYGLTTNATKKY
- Km ([1]; other: W286F): 2400 ± 300 µM
- kcat ([1]; other: W286F): 1.9 ± 0.1 s⁻¹
- kcat/Km ([1]; other: W286F): 800 ± 10 M⁻¹ s⁻¹
- Km ([2]; other: W286F): 400 ± 40 µM
- kcat ([2]; other: W286F): 2.6 ± 0.2 s⁻¹
- kcat/Km ([2]; other: W286F): 5800 ± 400 M⁻¹ s⁻¹

B2: WT HvExoI (Hordeum vulgare subsp. vulgare) (protein)
chain: DYVLYKDATKPVEDRVADLLGRMTLAEKIGQMTQIERLVATPDVLRDNFIGSLLSGGGSVPRKGATAKEWQDMVDGFQKACMSTRLGIPMIYGIDAVHGQNNVYGATIFPHNVGLGATRDPYLVKRIGEATALEVRATGIQYAFAPCIAVCRDPRWGRCYESYSEDRRIVQSMTELIPGLQGDVPKDFTSGMPFVAGKNKVAACAKHFVGDGGTVDGINENNTIINREGLMNIHMPAYKNAMDKGVSTVMISYSSWNGVKMHANQDLVTGYLKDTLKFKGFVISDWEGIDRITTPAGSDYSYSVKASILAGLDMIMVPNNYQQFISILTGHVNGGVIPMSRIDDAVTRILRVKFTMGLFENPYADPAMAEQLGKQEHRDLAREAARKSLVLLKNGKTSTDAPLLPLPKKAPKILVAGSHADNLGYQCGGWTIEWQGDTGRTTVGTTILEAVKAAVDPSTVVVFAENPDAEFVKSGGFSYAIVAVGEHPYTETKGDNLNLTIPEPGLSTVQAVCGGVRCATVLISGRPVVVQPLLAASDALVAAWLPGSEGQGVTDALFGDFGFTGRLPRTWFKSVDQLPMNVGDAHYDPLFRLGYGLTTNATKKY
- Km ([1]; other: WT): 2000 ± 150 µM
- kcat ([1]; other: WT): 27.7 ± 2.5 s⁻¹
- kcat/Km ([1]; other: WT): 13900 ± 600 M⁻¹ s⁻¹

B3: HvExoI W286Y mutant (Hordeum vulgare subsp. vulgare; W311Y) (protein)
chain: DYVLYKDATKPVEDRVADLLGRMTLAEKIGQMTQIERLVATPDVLRDNFIGSLLSGGGSVPRKGATAKEWQDMVDGFQKACMSTRLGIPMIYGIDAVHGQNNVYGATIFPHNVGLGATRDPYLVKRIGEATALEVRATGIQYAFAPCIAVCRDPRWGRCYESYSEDRRIVQSMTELIPGLQGDVPKDFTSGMPFVAGKNKVAACAKHFVGDGGTVDGINENNTIINREGLMNIHMPAYKNAMDKGVSTVMISYSSWNGVKMHANQDLVTGYLKDTLKFKGFVISDYEGIDRITTPAGSDYSYSVKASILAGLDMIMVPNNYQQFISILTGHVNGGVIPMSRIDDAVTRILRVKFTMGLFENPYADPAMAEQLGKQEHRDLAREAARKSLVLLKNGKTSTDAPLLPLPKKAPKILVAGSHADNLGYQCGGWTIEWQGDTGRTTVGTTILEAVKAAVDPSTVVVFAENPDAEFVKSGGFSYAIVAVGEHPYTETKGDNLNLTIPEPGLSTVQAVCGGVRCATVLISGRPVVVQPLLAASDALVAAWLPGSEGQGVTDALFGDFGFTGRLPRTWFKSVDQLPMNVGDAHYDPLFRLGYGLTTNATKKY
- Km ([1]; other: W286Y): 2000 ± 100 µM
- kcat ([1]; other: W286Y): 28.8 ± 2.9 s⁻¹
- kcat/Km ([1]; other: W286Y): 14600 ± 1500 M⁻¹ s⁻¹
- Km ([2]; other: W286Y): 400 ± 40 µM
- kcat ([2]; other: W286Y): 20.7 ± 1.7 s⁻¹
- kcat/Km ([2]; other: W286Y): 52600 ± 1500 M⁻¹ s⁻¹

B4: HvExoI W434H mutant (Hordeum vulgare subsp. vulgare; W459H) (protein)
chain: DYVLYKDATKPVEDRVADLLGRMTLAEKIGQMTQIERLVATPDVLRDNFIGSLLSGGGSVPRKGATAKEWQDMVDGFQKACMSTRLGIPMIYGIDAVHGQNNVYGATIFPHNVGLGATRDPYLVKRIGEATALEVRATGIQYAFAPCIAVCRDPRWGRCYESYSEDRRIVQSMTELIPGLQGDVPKDFTSGMPFVAGKNKVAACAKHFVGDGGTVDGINENNTIINREGLMNIHMPAYKNAMDKGVSTVMISYSSWNGVKMHANQDLVTGYLKDTLKFKGFVISDWEGIDRITTPAGSDYSYSVKASILAGLDMIMVPNNYQQFISILTGHVNGGVIPMSRIDDAVTRILRVKFTMGLFENPYADPAMAEQLGKQEHRDLAREAARKSLVLLKNGKTSTDAPLLPLPKKAPKILVAGSHADNLGYQCGGWTIEHQGDTGRTTVGTTILEAVKAAVDPSTVVVFAENPDAEFVKSGGFSYAIVAVGEHPYTETKGDNLNLTIPEPGLSTVQAVCGGVRCATVLISGRPVVVQPLLAASDALVAAWLPGSEGQGVTDALFGDFGFTGRLPRTWFKSVDQLPMNVGDAHYDPLFRLGYGLTTNATKKY
- Km ([1]; other: W434H): 2200 ± 200 µM
- kcat ([1]; other: W434H): 7.7 ± 0.6 s⁻¹
- kcat/Km ([1]; other: W434H): 3500 ± 400 M⁻¹ s⁻¹
- Km ([2]; other: W434H): 1700 ± 400 µM
- kcat ([2]; other: W434H): 51.8 ± 2.0 s⁻¹
- kcat/Km ([2]; other: W434H): 31300 ± 7300 M⁻¹ s⁻¹

B5: HvExoI W434F mutant (Hordeum vulgare subsp. vulgare; W459F) (protein)
chain: DYVLYKDATKPVEDRVADLLGRMTLAEKIGQMTQIERLVATPDVLRDNFIGSLLSGGGSVPRKGATAKEWQDMVDGFQKACMSTRLGIPMIYGIDAVHGQNNVYGATIFPHNVGLGATRDPYLVKRIGEATALEVRATGIQYAFAPCIAVCRDPRWGRCYESYSEDRRIVQSMTELIPGLQGDVPKDFTSGMPFVAGKNKVAACAKHFVGDGGTVDGINENNTIINREGLMNIHMPAYKNAMDKGVSTVMISYSSWNGVKMHANQDLVTGYLKDTLKFKGFVISDWEGIDRITTPAGSDYSYSVKASILAGLDMIMVPNNYQQFISILTGHVNGGVIPMSRIDDAVTRILRVKFTMGLFENPYADPAMAEQLGKQEHRDLAREAARKSLVLLKNGKTSTDAPLLPLPKKAPKILVAGSHADNLGYQCGGWTIEFQGDTGRTTVGTTILEAVKAAVDPSTVVVFAENPDAEFVKSGGFSYAIVAVGEHPYTETKGDNLNLTIPEPGLSTVQAVCGGVRCATVLISGRPVVVQPLLAASDALVAAWLPGSEGQGVTDALFGDFGFTGRLPRTWFKSVDQLPMNVGDAHYDPLFRLGYGLTTNATKKY
- Km ([1]; other: W434F): 600 ± 40 µM
- kcat ([1]; other: W434F): 6.6 ± 0.7 s⁻¹
- kcat/Km ([1]; other: W434F): 12700 ± 2100 M⁻¹ s⁻¹
- Km ([2]; other: W434F): 1700 ± 200 µM
- kcat ([2]; other: W434F): 17.1 ± 1.6 s⁻¹
- kcat/Km ([2]; other: W434F): 9900 ± 1200 M⁻¹ s⁻¹

B6: HvExoI W434A mutant (Hordeum vulgare subsp. vulgare; W459A) (protein)
chain: DYVLYKDATKPVEDRVADLLGRMTLAEKIGQMTQIERLVATPDVLRDNFIGSLLSGGGSVPRKGATAKEWQDMVDGFQKACMSTRLGIPMIYGIDAVHGQNNVYGATIFPHNVGLGATRDPYLVKRIGEATALEVRATGIQYAFAPCIAVCRDPRWGRCYESYSEDRRIVQSMTELIPGLQGDVPKDFTSGMPFVAGKNKVAACAKHFVGDGGTVDGINENNTIINREGLMNIHMPAYKNAMDKGVSTVMISYSSWNGVKMHANQDLVTGYLKDTLKFKGFVISDWEGIDRITTPAGSDYSYSVKASILAGLDMIMVPNNYQQFISILTGHVNGGVIPMSRIDDAVTRILRVKFTMGLFENPYADPAMAEQLGKQEHRDLAREAARKSLVLLKNGKTSTDAPLLPLPKKAPKILVAGSHADNLGYQCGGWTIEAQGDTGRTTVGTTILEAVKAAVDPSTVVVFAENPDAEFVKSGGFSYAIVAVGEHPYTETKGDNLNLTIPEPGLSTVQAVCGGVRCATVLISGRPVVVQPLLAASDALVAAWLPGSEGQGVTDALFGDFGFTGRLPRTWFKSVDQLPMNVGDAHYDPLFRLGYGLTTNATKKY
- Km ([1]; other: W434A): 500 ± 100 µM
- kcat ([1]; other: W434A): 9.5 ± 0.7 s⁻¹
- kcat/Km ([1]; other: W434A): 17600 ± 1800 M⁻¹ s⁻¹
- Km ([2]; other: W434A): 2100 ± 200 µM
- kcat ([2]; other: W434A): 2.6 ± 0.2 s⁻¹
- kcat/Km ([2]; other: W434A): 1300 ± 100 M⁻¹ s⁻¹
